Experiment [1] has as its target T1, FLAG-tagged extracellular domain of human FcγRIIIA (F158 allotype) (human, UniProt P08637 17-208).
T1 construct: extracellular domain; Secreted from HEK 293 cells, purified on anti-FLAG M2 agarose; also called FLAG-tagged FcγRIIIA; Flag-tagged Human FcγRIIIA; not shown: FLAG tag
In words: SPR (BIAcore 3000), IgG immobilised, soluble FLAG-tagged human FcγRIIIA, equilibrium fit. How it is done: Protein concentrations were calculated by the bicinchoninic acid methods. The different human IgG1s were coupled to the dextran matrix of a CM5 sensor chip (Pharmacia Biosensor) using an Amine Coupling Kit as described (Johnsson et al., 1991, Anal. Biochem. 198: 268-77) at a surface density of between 7765 and 8385 RU. Excess reactive esters were quenched by injection of 70 μl of 1.0 M ethanolamine hydrochloride, pH 8.5. […] Dilutions and binding experiments were carried out in 50 mM HBS buffer containing 0.01 M HEPES pH 7.4, 0.15 M NaCl, 3 mM EDTA and 0.005% P-20. Data were collected for about 50 min, and one 30 sec pulse of 5 mM HCl was used to regenerate the surfaces. Flag-tagged human FcγRIIIA was allowed to flow over an uncoated cell, and the sensorgrams from these blank runs subtracted from those obtained with IgG1-coupled chips.
On the technique in general: In SPR one partner is held on a chip, and binding of the other changes the refractive index at the surface.

In a further experiment the target is T2, human EphA2-Fc (human, UniProt P29317 25-534, limits assumed).
T2 construct: not shown: Fc part; origin and limits not described
T2 sequence (P29317 25-534 limits assumed): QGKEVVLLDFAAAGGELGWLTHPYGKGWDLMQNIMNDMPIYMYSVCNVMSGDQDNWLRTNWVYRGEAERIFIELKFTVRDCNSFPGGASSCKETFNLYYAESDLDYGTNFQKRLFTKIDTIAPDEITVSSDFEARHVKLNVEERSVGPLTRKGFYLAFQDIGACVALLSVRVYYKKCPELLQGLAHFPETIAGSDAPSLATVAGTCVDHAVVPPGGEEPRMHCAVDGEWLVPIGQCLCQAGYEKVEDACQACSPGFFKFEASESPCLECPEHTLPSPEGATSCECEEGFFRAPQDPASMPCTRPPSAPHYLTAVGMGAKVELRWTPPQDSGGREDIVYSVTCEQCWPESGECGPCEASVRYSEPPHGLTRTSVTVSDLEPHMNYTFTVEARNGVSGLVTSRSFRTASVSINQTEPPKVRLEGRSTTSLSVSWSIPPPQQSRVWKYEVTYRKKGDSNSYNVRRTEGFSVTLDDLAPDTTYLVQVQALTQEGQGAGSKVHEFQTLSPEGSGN
Nature of the experiment: KinExA, solution equilibrium titration with human EphA2-Fc. Here is the method:
Protein concentrations were calculated by the BCA method. […] Coated beads were then separated from unreacted EphA2-Fc using a gentle pulse spin and blocked for approximately 2 h at room temperature with 1 M Tris, pH 8.0, bovine serum albumin 10 mg/mL. Beads were then resuspended in 30 mL of run buffer (PBS, pH 7.4-0.02% NaN₃) and packed into a column. […] The amount of free IgG in the samples was derived from the fluorescence signal obtained after the passing of Cy5-labeled goat anti-human IgG F(ab′)₂ (typically 0.5-2 μg/ml; Jackson ImmunoResearch Laboratories, West Grove, Pa.) through the column. Dissociation constants (KDs) were determined by fitting the individual equilibrium titration data to a 1:1 binding model using the KinExA Pro 1.0.3. software.
On the technique in general: A kinetic exclusion assay measures how much of one partner remains free in solution.

A further experiment deals with T3, human C1q (Quidel) (human, UniProt P02745 23-245; P02746 28-253; P02747 29-245).
T3 construct: Bought protein (Quidel, CA); In the CDC assays C1q came with normal human serum complement; also called complement protein C1q; soluble human C1q
T3 sequence (P02745 23-245 limits assumed, chain 1 of 3): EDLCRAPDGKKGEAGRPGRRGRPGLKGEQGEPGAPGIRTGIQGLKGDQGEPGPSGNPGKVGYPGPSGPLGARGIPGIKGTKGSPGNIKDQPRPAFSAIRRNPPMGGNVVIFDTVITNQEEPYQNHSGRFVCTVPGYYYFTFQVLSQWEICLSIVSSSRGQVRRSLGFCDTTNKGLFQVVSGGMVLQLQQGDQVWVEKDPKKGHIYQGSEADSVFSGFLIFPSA
T3 sequence (P02746 28-253 limits assumed, chain 2 of 3): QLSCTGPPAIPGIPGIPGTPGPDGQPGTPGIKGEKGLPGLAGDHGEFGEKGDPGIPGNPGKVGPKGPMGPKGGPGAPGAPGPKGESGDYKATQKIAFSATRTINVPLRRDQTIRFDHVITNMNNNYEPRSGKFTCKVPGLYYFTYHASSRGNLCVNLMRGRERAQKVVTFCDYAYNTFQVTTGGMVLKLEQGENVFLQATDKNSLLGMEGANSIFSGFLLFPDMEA
T3 sequence (P02747 29-245 limits assumed, chain 3 of 3): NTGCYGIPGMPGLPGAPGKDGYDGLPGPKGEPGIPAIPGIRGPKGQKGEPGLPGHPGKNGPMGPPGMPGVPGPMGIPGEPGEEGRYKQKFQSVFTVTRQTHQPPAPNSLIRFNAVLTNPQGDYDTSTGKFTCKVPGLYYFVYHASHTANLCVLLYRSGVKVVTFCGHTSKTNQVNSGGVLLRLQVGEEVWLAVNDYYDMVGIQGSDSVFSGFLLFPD
Nature of the experiment: SPR (BIAcore 3000), IgG immobilised, soluble human C1q, equilibrium fit. Here is the method: Protein concentrations were calculated by the bicinchoninic acid methods. The different human IgG1s were coupled to the dextran matrix of a CM5 sensor chip (Pharmacia Biosensor) using an Amine Coupling Kit as described (Johnsson et al., 1991, Anal. Biochem. 198: 268-77) at a surface density of between 4830 and 9221 RU. Excess reactive esters were quenched by injection of 70 μl of 1.0 M ethanolamine hydrochloride, pH 8.5. […] Dilutions and binding experiments were carried out in 50 mM HBS buffer containing 0.01 M HEPES pH 7.4, 0.15 M NaCl, 3 mM EDTA and 0.005% P-20. Data were collected for about […], and two 1-min pulse of 1M NaCl/50 mM NaOH were used to regenerate the surfaces. Human C1q was allowed to flow over an uncoated cell, and the sensorgrams from these blank runs subtracted from those obtained with IgG1-coupled chips.

The values that follow come from patent publication US20140171623A1 (published 2014).

T1 sequence (P08637 17-208): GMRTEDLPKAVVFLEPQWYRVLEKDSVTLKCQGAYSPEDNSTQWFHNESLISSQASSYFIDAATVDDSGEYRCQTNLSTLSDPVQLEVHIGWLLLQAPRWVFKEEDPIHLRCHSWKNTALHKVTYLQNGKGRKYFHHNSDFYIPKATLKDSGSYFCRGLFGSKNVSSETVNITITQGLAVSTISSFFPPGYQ

B1: mAb 12G3H11 (wild type hinge), human anti-human EphA2 IgG1 (antibody)
heavy: not shown
light: DIQMTQSPSSLSASVGDRVTITCRASQSISNNLHWYQQKPGKAPKLLIKYAFQSISGVPSRFSGSGSGTDFTFTISSLQPEDFATYYCQQANSWPLTFGGGTKVEIK
notes: domain: CH1;domain: lower hinge, CH2, CH3; Human IgG1/κ from HEK 293 cells; also called Wild type (12G3H11); not shown: human κ chain constant region
The term Kd denotes the constant that tells how readily two partners part at equilibrium. Low values mean higher affinity, high ones lower affinity. B1: the Kd in experiment [1] is 6050 nM; with human EphA2-Fc it was 0.0011 nM; with human C1q (Quidel) it was 89 nM.

B2: 12G3H11 Fc variant 5-GGG Insert Low (antibody, human IgG1)
heavy: not shown
light: DIQMTQSPSSLSASVGDRVTITCRASQSISNNLHWYQQKPGKAPKLLIKYAFQSISGVPSRFSGSGSGTDFTFTISSLQPEDFATYYCQQANSWPLTFGGGTKVEIK
notes: domain: CH1;domain: lower hinge, CH2, CH3; Human IgG1/κ; not shown: human κ chain constant region
In the case of B2, the Kd in the experiment with human EphA2-Fc was determined as 0.0008 nM; with human C1q (Quidel) it was 282 nM.

B3: 12G3H11 Fc variant 13-2 AA Delete Mid (antibody, human IgG1)
heavy: not shown
light: DIQMTQSPSSLSASVGDRVTITCRASQSISNNLHWYQQKPGKAPKLLIKYAFQSISGVPSRFSGSGSGTDFTFTISSLQPEDFATYYCQQANSWPLTFGGGTKVEIK
notes: as for B2
In the experiment with human EphA2-Fc, B3 returned a Kd of 0.0017 nM.

B4: 12G3H11 Fc variant 17-DKTHT to PPPPP (antibody, human IgG1)
heavy: not shown
light: DIQMTQSPSSLSASVGDRVTITCRASQSISNNLHWYQQKPGKAPKLLIKYAFQSISGVPSRFSGSGSGTDFTFTISSLQPEDFATYYCQQANSWPLTFGGGTKVEIK
notes: as for B2
B4: binding in the experiment with human C1q (Quidel) was characterised by a dissociation constant (Kd) of 91 nM.

B5: 12G3H11 Fc variant 19-PP to WW Low (antibody, human IgG1)
heavy: not shown
light: DIQMTQSPSSLSASVGDRVTITCRASQSISNNLHWYQQKPGKAPKLLIKYAFQSISGVPSRFSGSGSGTDFTFTISSLQPEDFATYYCQQANSWPLTFGGGTKVEIK
notes: as for B2
Molecule B5 showed a dissociation constant (Kd) in the experiment with human C1q (Quidel) of 274 nM.

B6: 12G3H11 Fc variant 14-T to C Middle (antibody, human IgG1)
heavy: not shown
light: DIQMTQSPSSLSASVGDRVTITCRASQSISNNLHWYQQKPGKAPKLLIKYAFQSISGVPSRFSGSGSGTDFTFTISSLQPEDFATYYCQQANSWPLTFGGGTKVEIK
notes: as for B2
Molecule B6 registered a Kd in the experiment with human EphA2-Fc of 0.0072 nM.

B7: 12G3H11 Fc variant 8-PP to GG Low (antibody, human IgG1)
heavy: not shown
light: DIQMTQSPSSLSASVGDRVTITCRASQSISNNLHWYQQKPGKAPKLLIKYAFQSISGVPSRFSGSGSGTDFTFTISSLQPEDFATYYCQQANSWPLTFGGGTKVEIK
notes: as for B2
For the molecule B7, the Kd is 6400 nM in experiment [1] and 155 nM in the experiment with human C1q (Quidel).

B8: 12G3H11 Fc variant 6-GGG Insert High (antibody, human IgG1)
heavy: not shown
light: DIQMTQSPSSLSASVGDRVTITCRASQSISNNLHWYQQKPGKAPKLLIKYAFQSISGVPSRFSGSGSGTDFTFTISSLQPEDFATYYCQQANSWPLTFGGGTKVEIK
notes: as for B2
In the case of B8, binding with human EphA2-Fc was put at a Kd of 0.0027 nM.

B9: 12G3H11 Fc variant 20-KT to WW Mid (antibody, human IgG1)
heavy: not shown
light: DIQMTQSPSSLSASVGDRVTITCRASQSISNNLHWYQQKPGKAPKLLIKYAFQSISGVPSRFSGSGSGTDFTFTISSLQPEDFATYYCQQANSWPLTFGGGTKVEIK
notes: as for B2
In turn, B9 came in with a Kd with human C1q (Quidel) of 61 nM.

B10: 12G3H11 Fc variant 18-EPKS to PPPP (antibody, human IgG1)
heavy: not shown
light: DIQMTQSPSSLSASVGDRVTITCRASQSISNNLHWYQQKPGKAPKLLIKYAFQSISGVPSRFSGSGSGTDFTFTISSLQPEDFATYYCQQANSWPLTFGGGTKVEIK
notes: as for B2
B10: the values for the Kd with human EphA2-Fc and with human C1q (Quidel) were 0.0015 nM and 75 nM, respectively.

B11: 12G3H11 Fc variant 1-CD Invert (antibody, human IgG1)
heavy: not shown
light: DIQMTQSPSSLSASVGDRVTITCRASQSISNNLHWYQQKPGKAPKLLIKYAFQSISGVPSRFSGSGSGTDFTFTISSLQPEDFATYYCQQANSWPLTFGGGTKVEIK
notes: as for B2
Take B11: in the experiment with human C1q (Quidel), the Kd came out at 92 nM.
